{
  "source": "paper PMC4461205",
  "about": "“Structural bases for N-glycan processing by mannoside phosphorylase” (Acta Crystallographica Section D: Biological Crystallography, 2015)",
  "key": {"Uhgb_MP [1]": {"target": "T1, Uhgb_MP (uncultured organism, UniProt D9ZDQ9)", "T1 sequence (D9ZDQ9 entry or part of it)": "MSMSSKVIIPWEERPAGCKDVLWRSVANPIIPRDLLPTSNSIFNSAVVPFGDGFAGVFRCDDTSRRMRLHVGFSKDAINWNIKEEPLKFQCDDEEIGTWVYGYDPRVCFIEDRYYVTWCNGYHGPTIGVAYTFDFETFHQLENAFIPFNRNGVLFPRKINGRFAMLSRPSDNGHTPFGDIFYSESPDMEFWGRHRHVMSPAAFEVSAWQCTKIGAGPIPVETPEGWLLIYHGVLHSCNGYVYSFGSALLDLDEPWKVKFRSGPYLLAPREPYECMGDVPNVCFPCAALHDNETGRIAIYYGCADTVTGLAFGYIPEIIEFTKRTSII", "test": "X-ray crystal structure, co-crystallization", "format": "binding", "set-up": "homohexamer, 240 kDa by SEC-MALLS", "conditions": "+1 subsite; with phosphate, glycerol in -1 subsite; co-crystallized with 5 mM N-acetylglucosamine, pH 7.0; 4C1 chair; 1.60 A; also with mannose in 4udk (1.76 A)"}, "Uhgb_MP [2]": {"target": "T1, Uhgb_MP", "conditions": "catalytic site; phosphate from 20 mM potassium phosphate buffer pH 7.0; glycerol in -1 subsite; 1.80 A; also in 4udj, 4udg, 4udk"}, "[3]": {"target": "Uhgb_MP, β-1,4-mannopyranosyl-chitobiose phosphorylase (GH130_2 mannoside phosphorylase) (uncultivated Bacteroides bacterium (human gut))", "test": "SAXS (SEC-SAXS); Bio SEC3 300 column on line with SAXS, 10°C; phosphate buffer or Tris-glycerol buffer (aggregation seen in both); hexamer read from data in Tris-glycerol buffer with 1 mM TCEP; ab initio envelope and rigid-body modelling"}, "[4]": {"target": "Uhgb_MP, β-1,4-mannopyranosyl-chitobiose phosphorylase (GH130_2 mannoside phosphorylase) (uncultivated Bacteroides bacterium (human gut))", "test": "SEC-MALS; 30 µl of gel-filtered Uhgb_MP at 6 mg/ml on Superdex 200 HR 10/300 in 20 mM potassium phosphate pH 7.0, 150 mM NaCl, 0.4 ml/min, 15°C"}, "[5]": {"target": "Uhgb_MP, β-1,4-mannopyranosyl-chitobiose phosphorylase (GH130_2 mannoside phosphorylase) (uncultivated Bacteroides bacterium (human gut))", "test": "crystal structure; sitting-drop vapour diffusion at 12°C; protein 9-12 mg/ml in 20 mM potassium phosphate pH 7.0, 150 mM NaCl, with or without 5 mM mannose and/or 5 mM N-acetylglucosamine; PEG 3350, ammonium chloride; space group P212121, six molecules per asymmetric unit"}},
  "data": [
    {"compound": "CC(=O)N[C@H]1C(O)O[C@H](CO)[C@@H](O)[C@@H]1O", "note": "(some centres unmarked) [N-acetylglucosamine]", "values": [
      {"measurement": "X-ray crystal structure, co-crystallization", "setting": "Uhgb_MP [1]", "value": "complex with N-acetylglucosamine alone (PDB entry 4udg"}
    ]},
    {"compound": "O=P(O)(O)O", "note": "[inorganic phosphate]", "values": [
      {"measurement": "X-ray crystal structure", "setting": "Uhgb_MP [2]", "value": "Pi is deeply buried in the catalytic site, strongly stabilized by hydrogen bonds"}
    ]},
    {"compound": "Uhgb_MP, β-1,4-mannopyranosyl-chitobiose phosphorylase (GH130_2 mannoside phosphorylase) (enzyme)", "values": [
      {"measurement": "stoichiometry N", "setting": "[3]", "value": 6},
      {"measurement": "stoichiometry N", "setting": "[4]", "value": 6.16},
      {"measurement": "stoichiometry N", "setting": "[5]", "value": 6}
    ]}
  ]
}
